Measurements published in the supplement of paper PMC9170038.

Test system: K4 kissing-loop RNA reporter
Assay: apparent KD of K4 kissing-loop reporter; higher = weaker reporter binding
Conditions: Eterna round: R107
Method: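 RNA-MaP round R107: designed RNA switches with theophylline, tryptophan, arginine or FMN aptamers are transcribed on-chip within common flanks. They are titrated with a labelled K4 kissing-loop RNA reporter in RNA-MaP buffer (100 mM Tris pH 7.5, 80 mM KCl, 4 mM MgCl2), without ligand or with the indicated ligand. Median apparent KD per design.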

[1] = input ligand: theophylline 20 uM
[2] = input ligand: tryptophan 2.4 mM
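Further: bound reporter read as fluorescence of individual clusters on recovered sequencing chips by microscopy, with normalized cluster intensities fitted with a binding model.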

Sequence	apparent KD of K4 kissing-loop reporter (input ligand: FMN 200 uM) [µM]	apparent KD of K4 kissing-loop reporter (input ligand: arginine 13.2 mM) [µM]	apparent KD of K4 kissing-loop reporter (input ligand: none) [µM]	apparent KD of K4 kissing-loop reporter [1] [µM]	apparent KD of K4 kissing-loop reporter [2] [µM]
GCCGUAGAUUGAAGGAGCGUUCUUACUGAUUACGGCAGCCGGAAGUGAUGUUUCCAGGUGGAACAGGUAGGUCGCAAUCUACGGC	0.104	0.0872	0.096	0.0998	0.092
GCCGUCCGGUCGCAAGACCGGACAGCCGAUACCAGCGCGAAGGCGCGCCCUUGGCAGCGGCACCGAGUGAUGUUCGGUCAGGCGG [#2 Same State - Theophylline A Attempt #2 (HarryS)]	0.179	0.148	0.173	0.128	0.166
GCCUAGCAGGGAAGGAGCGCCAGGAGAAGAAAUGGAGAGAGUUGAGUGAUGUUCAAAUGGUGGCAGGUAGGUCGCCCUGCUAGGC [KL-SSArg B12]	0.388	0.298	0.583	0.761	0.274
GCCUGGGCCCGAAGGAGCGCCGUGACAGGUUACUGCAUUGAGCAGUGAUGUUGCUCAAUCUGGCAGGUAGGUCGCGGGCCCAGGC	0.12	0.1	0.102	0.108	0.0931
GCGAAAAGCAAAACGAGUGAUGUUCGAAAACGAGGACCGGUACGGCCGCCACUCGAAAACGUCUGCGUGGGAAACUAUGUAGAUG [SS Tryptophan A - 1]	0.511	0.569	0.698	0.59	0.302
GCGCGCGGCGGAGGAUAUAGCCGGUGAUCCGAGAAAGUGAGUGAUGUUUACGGAGUUGAGGAUAUGUUAGAAGGCCGCCGCGCGC [abcdefghijklmnopqrstuvwx]	0.339	0.751	1	0.792	0.789
GCGCGGGUCAGUGAUGUUGACCCUCGGAGACGAGGACCGGUACGGCCGCCACUCGUCCGCGCAGCUGAGGCAAAAGCCUCGGCAA [Omei KL Tryp A SS B v5]	0.155	0.142	0.14	0.131	0.103
GCGUUACUGAAAGGAUAUGAUCAACAUAGUGGUCAGUGAUGUUGGCAGGCCUCGUGGCGAGGUAGAUCAGAAGGUUCAUUACGAC [theeternabot_sameState_KL_FMN_B_11]	0.415	0.484	0.553	0.502	0.482
GCUACUGCUGAAGGAUAUAUCAAUAGAGUGAUGUUCUAUGUCGGUAGCCCGAAAGGGCUACCGACGAUAGAAGGUCAGCAGUAGC	0.113	1.02	0.723	1.07	0.983
GCUAGGCAUGCAGGAUAUCGCCGAGUGAUGUUCGGUAGGCCGCUUUCUUUCUUUCUUUGCGGCCAGCGAGAAGGGCAUGCCUAGC	0.139	0.112	0.108	0.068	0.118
GCUAUGGUAGGAAGGAGCGCUGCCUUGUUUUUACGAGUGAUGUUCGGAAGCAGGGCGUUAAAGCAGGUAGGUCGCCUACUAUAGC [Arginine B K4 22]	0.22	0.135	0.152	0.147	0.146
GCUAUGGUAGGAAGGAGCGCUUACUCGUUAAUAAGAGUGAUGUUCGAUAACGAGUAUUUAUAGCAGGUAGGUCGCCUACUAUAGC [Arginine B K4 4]	0.207	0.193	0.168	0.242	0.199
GGACGACAGUCGGCCGCCACUCACAGCCGAGUGAUGUUCGGGAUUGUAGCGGAGUGAUGUUUCGCGAGGACCGGGACUGCAGUCC [Same State Typtophan B GF 27]	0.2	0.166	0.184	0.171	0.141
GGACUACUAUGUCCCAUACAAACAAGAGAUACCAGCCAUCAUAGAGGCCCUUGGCAGCUCAUAUAAUCCAGUGAUGUUGGAUUUC [Beveus]	0.15	0.193	0.163	0.136	0.132
GGAGAGCGAAAAGGAUAUGCGUCCGUCAAAAUUAUGUAGCGCGGAAAAUGGUAGUGAUGUUGCAAAGCAGAAGGUUUCAGAUGUA [theeternabot_sameState_KL_FMN_B_43]	0.261	0.259	0.45	0.519	0.216
GGAGGAGAAUAUGAUACCAGCAGAGAGAGAGAGGAAGUAUAGUGAUGUUAUAUGUGAGAAUGCCCUUGGCAGCAUAACAUGAAGG [whbob_SS_Theo_B_sa90]	0.288	0.193	0.211	0.454	0.159

Sequence	apparent KD of K4 kissing-loop reporter (input ligand: FMN 200 uM) [µM]	apparent KD of K4 kissing-loop reporter (input ligand: arginine 13.2 mM) [µM]	apparent KD of K4 kissing-loop reporter (input ligand: none) [µM]	apparent KD of K4 kissing-loop reporter [1] [µM]	apparent KD of K4 kissing-loop reporter [2] [µM]
GGAGUUACCUGGGAUACCAGUCGGAGUCCCAGAGCUCGGAGUGAUGUUCUGGGAUGUUUCGGCCCUUGGCAGCUCUGGGACUCCC [#2 Exclusion - Theophylline B Attempt #9 (HarryS)]	0.893	0.597	0.776	0.726	0.78
GGAUAGGACACGGCCGCCACUACCGAGGAUACUCGAAACAUUUCCUCAGAUGAGUGAUGUUCAUCUAGGACCGGGUGUCCUAUCG [KL-XTryp-B19 #analogue]	0.125	0.103	0.118	0.121	0.131
GGAUAGGACAGAGGAUAUGGCAGUCUACAAAGUAGGCUGAAAUAAAUCCUUGAAUGGAGUGAUGUUCCAGAAGGCUGUCCUAUCG [FmnBX 23 #SwitchBubble #StaticStem #Palindromic]	0.911	0.156	0.158	0.169	0.172
GGAUAGGACAGAGGAUAUGGUAGCUAGGCAAGACAAAAGUCUUGUCUAGCAAUGAGGAGUGAUGUUCCAGAAGGCUGUCCUAUCG [FmnBX 4 - #SwitchBubble #StaticStem]	0.753	0.35	0.442	0.387	0.27
GGAUAGGACGGAGGAUAUGGUAGUGAUGUUACCAAACUGGUUAAACAUGUCAGAAAACUGGCAUGACCAGAAGGUUGUCCUAUCG [FmnBX 27 G10+U75]	0.0982	0.069	0.0945	0.0444	0.0733
GGAUAGGAUAGAGGAUAUGGAAAACACAGAAAUGACUUGUUGUGUUUAUCCAUAGGGAGUGAUGUUCCAGAAGGCUGUCCUAUCG [MatMod 21 - Jieux - Exclusion - FMN B]	0.289	0.184	0.194	0.198	0.158
GGAUAGGAUAGAGGAUAUGGCUUAUGCAGAAAUAACUUAUUGUGUAAAUCCAUAGGGAGUGAUGUUCCAGAAGGCUGUCCUAUCG [MatMod 16 - Jieux - Exclusion - FMN B]	0.821	0.218	0.235	0.224	0.202
GGAUCCUAGGCGGCCGCCACUCCAAUUGGCCGAAAGGCCUGAUACCGAGUGAUGUUCGGUUGGAGGAGGACCGGGCCUAGGAUCC [#2 Exclusion - Tryptophan B Attempt #2 (HarryS)]	0.144	0.132	0.118	0.165	0.104
GGAUUCGGCGCGGCCGCCACUUCCGGUGGCUGGUGUCAUGGUGCGCGUGAGUGAUGUUUAUGUGGGAGGACCGGGCGUUGAGUCC [whbob_Ex_Tryp_B_w45]	0.577	0.322	0.767	0.441	0.305
GGCACGUUCCCUUGAUCAGUGAUGUUGUUUCGAGGACCGGUACGGCCGCCACUCGCUCGGCGUUCGCCCAGGCCCGGAAAACUGC [theeternabot_exclusion_KL_Trp_A_13]	0.241	0.207	0.224	0.217	0.225
GGCCGCAAGGCGAGCGCUCCCACUCCGGAAGGAGCGCCCGCAAGGGCAGGUAGGUCGCCGGAGUGAUGUUCCGGUGGAGGGCUCG [#2 Exclusion - Arginine A Attempt #16 (Inspired by Omei)]	0.398	0.271	0.369	0.127	0.338
GGCCGGAAGGCGAGCGCUCCCACUCCGGAAGGAGCGCCCGUAAGGGCAGGUAGGUCGCCGGAGUGAUGUUCCGGUGGAGGGCUCG [#2 Exclusion - Arginine A Attempt #21 (Inspired by Omei)]	0.165	0.106	0.18	0.302	0.186
GGCGGCUGCGCGCAAGCGCAGCCGGCCGAUACCAGCGCGACGGCGCGCCCUUGGCAGCGGCGCCGAGUGAUGUUCGGCCUGCCGU [#2 Same State - Theophylline A Attempt #22 (HarryS)]	0.113	0.0981	0.129	0.149	0.141
GGCGUCAAACCAGAACUAGUGAUGUUGGUUCGAGGACCGGUACGGCCGCCACUCGAUCUCUUGGUCCAUCGCGGAAGGGCAGCGG [theeternabot_exclusion_KL_Trp_A_29]	0.511	0.369	0.532	0.414	0.622
GGGAGAAGUGCGGCCGCCACUGAGAAAGAAGAAGAAUAUAGUGAUGUUAUAUAGGAAAGGAAGAACAGGACCGGGCAUAAGAGGG [SSTryptB.A]	0.104	0.148	0.126	0.131	0.0991
